# Target: β-arrestin-2 (UniProt P32121)
# Experiment: anti-HA co-IP after DSS cross-linking, anti-Flag blot
# Conditions: reference: wild type C3aR
Substance,"binding against the reference (sites S459,T463,S465,T466,S470,S475,S479,T480,T481)","other: percent decrease vs wild type (sites T463,S465,T466,S470)"
C3a receptor (C3aR) (from UniProt Q16581) MT7 (S459A plus MT1 and MT2 substitutions),lost,–
C3a receptor (C3aR) (from UniProt Q16581) MT2 (T463A/S465A/T466A/S470A),–,74%

# Reference: paper PMC3471852
